Biological target: SARS-CoV-2 spike receptor-binding domain (RBD) (SARS-CoV-2, UniProt P0DTC2 319-541)
Assay: 40 min incubation, immobilized aptamer

B1: SARS-CoV-2 RBD aptamer, amine-terminated (ssDNA)
DNA: CAGCACCGACCTTGTGCTTTGGGAGTGCTGGTCCAAGGGCGTTAATGGACA
modifications: 5'-NH2-(CH2)6
With B1 the Kd was 3.4 nM.

Source: article PMC8240452
